Experimental data reported in US20240277805A1.

Target: T1, myostatin (UniProt O14793)
T1 sequence (looked up): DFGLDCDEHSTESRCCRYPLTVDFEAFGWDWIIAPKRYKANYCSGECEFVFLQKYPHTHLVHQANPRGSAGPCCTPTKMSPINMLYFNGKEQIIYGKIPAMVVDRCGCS
Assay: cell-based or functional assay

B1: STM 434 (svActRIIB-Fc (E28W, S44T) polypeptide without signal sequence) (Fc fusion)
chain: ETRWCIYYNANWELERTNQTGLERCEGEQDKRLHCYASWRNSSGTIELVKKGCWLDDFNCYDRQECVATEENPQVYFCCCEGNFCNERFTHLPEAGGPEVTYEPPPTAPTGGGGSVECPPCPAPPVAGPSVFLFPPKPKDTLMISRTPEVTCVVVDVSHEDPEVQFNWYVDGVEVHNAKTKPREEQFNSTFRVVSVLTVVHQDWLNGKEYKCKVSNKGLPAPIEKTISKTKGQPREPQVYTLPPSREEMTKNQVSLTCLVKGFYPSDIAVEWESNGQPENNYKTTPPMLDSDGSFFLYSKLTVDKSRWQQGNVFSCSVMHEALHNHYTQKSLSLSPGK
Question: Which results are given for B1?
Answer: Bioassay % relative potency; lot 0010036965, 5° C. upright, 0 months (% relative potency): 100; Bioassay % relative potency; lot 0010036965, 5° C. upright, 0.5 months (% relative potency): 99; Bioassay % relative potency; lot 0010036965, 5° C. upright, 1 month (% relative potency): 100; Bioassay % relative potency; lot 0010036965, 5° C. upright, 3 months (% relative potency): 104; Bioassay % relative potency; lot 0010036965, 5° C. upright, 6 months (% relative potency): 94; Bioassay % relative potency; lot 0010036965, 25° C. upright, 0 months (% relative potency): 100; Bioassay % relative potency; lot 0010036965, 25° C. upright, 0.25 months (% relative potency): 97; Bioassay % relative potency; lot 0010036965, -20° C. upright, 0 months (% relative potency): 100; Bioassay % relative potency; lot 0010036965, -20° C. upright, 1 month (% relative potency): 100; Bioassay % relative potency; lot 0010036965, -20° C. upright, 3 months (% relative potency): 102; Bioassay % relative potency; lot 0010036965, -20° C. upright, 6 months (% relative potency): 95; Bioassay % relative potency; lot 0010036965, -20° C. upright, 9 months (% relative potency): 103; Bioassay % relative potency; lot 0010036965, -20° C. upright, 12 months (% relative potency): 102; Bioassay % relative potency; lot 0010036965, -20° C. upright, 18 months (% relative potency): 102; Bioassay % relative potency; lot 0010036965, -20° C. upright, 24 months (% relative potency): 99; Bioassay % relative potency; lot 0010036965, -20° C. upright, 30 months (% relative potency): 102; Bioassay % relative potency; lot 0010036965, -70° C. upright, 0 months (% relative potency): 100; Bioassay % relative potency; lot 0010036965, -70° C. upright, 12 months (% relative potency): 100; Bioassay % relative potency; lot 0010036965, -70° C. upright, 24 months (% relative potency): 100; Bioassay % relative potency; lot 0010036965, T = 0 of the 5 × freeze/thaw study (% relative potency): 100; Bioassay % relative potency; lot 0010036965, after 5 × F/T (% relative potency): 100; Bioassay % relative potency; lot EG-13-0150, 2-8° C. upright, 0 months (% relative potency): 99; Bioassay % relative potency; lot EG-13-0150, 2-8° C. upright, 1 month (% relative potency): 93.2; Bioassay % relative potency; lot EG-13-0150, 2-8° C. upright, 3 months (% relative potency): 99.7; Bioassay % relative potency; lot EG-13-0150, 2-8° C. upright, 6 months (% relative potency): 114; Bioassay % relative potency; lot EG-13-0150, 2-8° C. upright, 9 months (% relative potency): 103; Bioassay % relative potency; lot EG-13-0150, 2-8° C. upright, 12 months (% relative potency): 106; Bioassay % relative potency; lot EG-13-0150, 25° C. upright, 0 months (% relative potency): 99; Bioassay % relative potency; lot EG-13-0150, 25° C. upright, 1 month (% relative potency): 86.9; Bioassay % relative potency; lot EG-13-0150, -20° C. upright, 0 months (% relative potency): 99; Bioassay % relative potency; lot EG-13-0150, -20° C. upright, 1 month (% relative potency): 93.2; Bioassay % relative potency; lot EG-13-0150, -20° C. upright, 3 months (% relative potency): 94.4; Bioassay % relative potency; lot EG-13-0150, -20° C. upright, 6 months (% relative potency): 110; Bioassay % relative potency; lot EG-13-0150, -20° C. upright, 9 months (% relative potency): 99.3; Bioassay % relative potency; lot EG-13-0150, -20° C. upright, 12 months (% relative potency): 105; Bioassay % relative potency; lot EG-13-0150, T = 0 of the 5 × freeze/thaw study (% relative potency): 99; Bioassay % relative potency; lot EG-13-0150, after 5 × F/T (% relative potency): 96; Bioassay % relative potency; lot FG-13-0230, 2-8° C. upright, 0 months (% relative potency): 99; Bioassay % relative potency; lot FG-13-0230, 2-8° C. upright, 1 month (% relative potency): 116; Bioassay % relative potency; lot FG-13-0230, 2-8° C. upright, 3 months (% relative potency): 108; Bioassay % relative potency; lot FG-13-0230, 2-8° C. upright, 6 months (% relative potency): 93; Bioassay % relative potency; lot FG-13-0230, 2-8° C. upright, 9 months (% relative potency): 116; Bioassay % relative potency; lot FG-13-0230, 2-8° C. upright, 12 months (% relative potency): 121; Bioassay % relative potency; lot FG-13-0230, 25° C. upright, 0 months (% relative potency): 99; Bioassay % relative potency; lot FG-13-0230, 25° C. upright, 1 month (% relative potency): 116; Bioassay % relative potency; lot FG-13-0230, -20° C. upright, 0 months (% relative potency): 99; Bioassay % relative potency; lot FG-13-0230, -20° C. upright, 1 month (% relative potency): 100; Bioassay % relative potency; lot FG-13-0230, -20° C. upright, 3 months (% relative potency): 115; Bioassay % relative potency; lot FG-13-0230, -20° C. upright, 6 months (% relative potency): 96; Bioassay % relative potency; lot FG-13-0230, -20° C. upright, 9 months (% relative potency): 94; Bioassay % relative potency; lot FG-13-0230, -20° C. upright, 12 months (% relative potency): 106; Bioassay % relative potency; lot FG-13-0230, -70° C. upright, 0 months (% relative potency): 99; Bioassay % relative potency; lot FG-13-0230, -70° C. upright, 1 month (% relative potency): 115; Bioassay % relative potency; lot FG-13-0230, -70° C. upright, 3 months (% relative potency): 107; Bioassay % relative potency; lot FG-14-0056, 2-8° C. upright, 0 months (% relative potency): 99; Bioassay % relative potency; lot FG-14-0056, 2-8° C. upright, 1 month (% relative potency): 102; Bioassay % relative potency; lot FG-14-0056, 25° C. upright, 0 months (% relative potency): 99; Bioassay % relative potency; lot FG-14-0056, 25° C. upright, 1 month (% relative potency): 122; Bioassay % relative potency; lot FG-14-0056, -20° C. by the title (condition line prints 2-8° C.), 0 months (% relative potency): 99; Bioassay % relative potency; lot FG-14-0056, -20° C. by the title (condition line prints 2-8° C.), 1 month (% relative potency): 117; Bioassay % relative potency; lot FG-14-0109, 2-8° C. inverted, 0 months (% relative potency): 98; Bioassay % relative potency; lot FG-14-0109, 2-8° C. inverted, 3 months (% relative potency): 96; Bioassay % relative potency; lot FG-14-0109, 2-8° C. inverted, 6 months (% relative potency): 112; Bioassay % relative potency; lot FG-14-0109, 2-8° C. upright, 0 months (% relative potency): 98; Bioassay % relative potency; lot FG-14-0109, 2-8° C. upright, 3 months (% relative potency): 92; Bioassay % relative potency; lot FG-14-0109, 2-8° C. upright, 6 months (% relative potency): 107; Bioassay % relative potency; lot FG-14-0109, 25° C. inverted, 0 months (% relative potency): 98; Bioassay % relative potency; lot FG-14-0109, 25° C. inverted, 3 months (% relative potency): 94; Bioassay % relative potency; lot FG-14-0109, 25° C. inverted, 6 months (% relative potency): 98; Bioassay % relative potency; lot FG-14-0109, 25° C. upright, 0 months (% relative potency): 98; Bioassay % relative potency; lot FG-14-0109, 25° C. upright, 3 months (% relative potency): 91; Bioassay % relative potency; lot FG-14-0109, 25° C. upright, 6 months (% relative potency): 105; Bioassay % relative potency; lot FG-14-0109, -20° C. upright, 0 months (% relative potency): 98; Bioassay % relative potency; lot FG-14-0109, -20° C. upright, 3 months (% relative potency): 96; Bioassay % relative potency; lot FG-14-0109, -20° C. upright, 6 months (% relative potency): 101; Cell Based Bioassay, Relative Potency; DP lot 0010036965, 5° C., 54 months (% relative potency): 87; Cell Based Bioassay, Relative Potency; DP lot 0010036965, -20° C., 54 months (% relative potency): 99; Cell Based Bioassay, Relative Potency; DP lot 0010036965, -70° C., 54 months (% relative potency): 111; Cell Based Bioassay, Relative Potency; DS lot 0010035106, 5° C., 54 months (% relative potency): 101; Cell Based Bioassay, Relative Potency; DS lot 0010035106, -70° C., 54 months (% relative potency): 99
